B1: TWIST1: OSMI-1 (protein)
parent chain: MMQDVSSSPVSPADDSLSNSEEEPDRQQPPSGKRGGRKRRSSRRSAGGGAGPGGAAGGGVGGGDEPGSPAQGKRGKKSAGCGGGGGAGGGGGSSSGGGSPQSYEELQTQRVMANVRERQRTQSLNEAFAALRKIIPTLPSDKLSKIQTLKLAARYIDFLYQVLQSDELDSKMASCSYVAHERLSYAFSVWRMEGAWSMSASH
B2: TWIST1: S31A (protein)
parent chain: B1 parent chain

Legend:
[1] = Western blot, KG1a-TWIST1 and SKM1; conditions: glycan lost; control: untreated cells
[2] = CHX chase, TWIST1 stability, KG1a-TWIST1 and SKM1; conditions: glycan lost; control: untreated cells
[3] = IP / ubiquitin blot, KG1a-TWIST1 and SKM1; conditions: glycan lost; control: non-treated cells
[4] = IP / ubiquitin blot, HEK-293T; conditions: glycan lost; control: WT flag-TWIST1
Western blot, HEK-293T = conditions: glycan lost; control: WT flag-TWIST1
[5] = CHX chase, TWIST1 stability, HEK-293T; conditions: glycan lost; control: WT flag-TWIST1

| Protein | expression_or_secretion [1] | degradation_or_half_life [2] | other: ubiquitination [3] | other: ubiquitination [4] | expression_or_secretion (Western blot, HEK-293T) | degradation_or_half_life [5] |
| --- | --- | --- | --- | --- | --- | --- |
| B1 | decreases | decreases | increases |  |  |  |
| B2 |  |  |  | increases | decreases | decreases |

— publication PMC10514931
